Experimental data as given in the RNAGym collection of RNA variant scans (doi:10.1021/acssynbio.7b00057).

B1: Pistol ribozyme (parent)
chain: GGGUCGUUGUUCCAUAAUCGCGUGGAUAUGGCACGCAAGUUUCUACCGGGCACCGUAAAUGUCCGACUGGAGCCGUUCGGGCGGCUAUAAACAGACCUCAGGCCCGAAGCGUGGCGGCACCUGCCGCCGGUGGUAAAAAAGAUCGGAAGAGCACACGUCU

Variants of: B1
Assay: aptazyme ON/OFF ratio, guanine; higher = stronger switching; co-transcriptional cleavage with and without guanine

Row | Variant | aptazyme ON/OFF ratio
1 | GGGUCGGGGCAAGAUAAUCGCGUGGAUAUGGCACGCAAGUUUCUACCGGGCACCGUAAAUGUCCGACUGGAGCCGUUCGGGCGGCUAUAAACAGACCUCAGGCCCGAAGCGUGGCGGCACCUGCCGCCGGUGGUAAAAAAGAUCGGAAGAGCACACGUCU [U7G U8G U10C U11A C12A C13G] | 1.12
2 | GGGUCGACUGGCUAUAAUCGCGUGGAUAUGGCACGCAAGUUUCUACCGGGCACCGUAAAUGUCCGACUGGAGCCGUUCGGGCGGCUAUAAACAGACCUCAGGCCCGAAGCGUGGCGGCACCUGCCGCCGGUGGUAAAAAAGAUCGGAAGAGCACACGUCU [U7A U8C G9U U10G U11G C13U] | 1.17
3 | GGGUCGGUGGUACAUAAUCGCGUGGAUAUGGCACGCAAGUUUCUACCGGGCACCGUAAAUGUCCGACUGGAGCCGUUCGGGCGGCUAUAAACAGACCUCAGGCCCGAAGCGUGGCGGCACCUGCCGCCGGUGGUAAAAAAGAUCGGAAGAGCACACGUCU [U7G U10G C12A] | 1.22
4 | GGGUCGCUAGCGGAUAAUCGCGUGGAUAUGGCACGCAAGUUUCUACCGGGCACCGUAAAUGUCCGACUGGAGCCGUUCGGGCGGCUAUAAACAGACCUCAGGCCCGAAGCGUGGCGGCACCUGCCGCCGGUGGUAAAAAAGAUCGGAAGAGCACACGUCU [U7C G9A U10G U11C C12G C13G] | 1.34
5 | GGGUCGUGACAUUAUAAUCGCGUGGAUAUGGCACGCAAGUUUCUACCGGGCACCGUAAAUGUCCGACUGGAGCCGUUCGGGCGGCUAUAAACAGACCUCAGGCCCGAAGCGUGGCGGCACCUGCCGCCGGUGGUAAAAAAGAUCGGAAGAGCACACGUCU [U8G G9A U10C U11A C12U C13U] | 1.05
6 | GGGUCGGACAGGAAUAAUCGCGUGGAUAUGGCACGCAAGUUUCUACCGGGCACCGUAAAUGUCCGACUGGAGCCGUUCGGGCGGCUAUAAACAGACCUCAGGCCCGAAGCGUGGCGGCACCUGCCGCCGGUGGUAAAAAAGAUCGGAAGAGCACACGUCU [U7G U8A G9C U10A U11G C12G C13A] | 1.05
7 | GGGUCGUGGUAAUAUAAUCGCGUGGAUAUGGCACGCAAGUUUCUACCGGGCACCGUAAAUGUCCGACUGGAGCCGUUCGGGCGGCUAUAAACAGACCUCAGGCCCGAAGCGUGGCGGCACCUGCCGCCGGUGGUAAAAAAGAUCGGAAGAGCACACGUCU [U8G U11A C12A C13U] | 1.28
8 | GGGUCGCCGCAGCAUAAUCGCGUGGAUAUGGCACGCAAGUUUCUACCGGGCACCGUAAAUGUCCGACUGGAGCCGUUCGGGCGGCUAUAAACAGACCUCAGGCCCGAAGCGUGGCGGCACCUGCCGCCGGUGGUAAAAAAGAUCGGAAGAGCACACGUCU [U7C U8C U10C U11A C12G] | 1.05
9 | GGGUCGCCUGACGAUAAUCGCGUGGAUAUGGCACGCAAGUUUCUACCGGGCACCGUAAAUGUCCGACUGGAGCCGUUCGGGCGGCUAUAAACAGACCUCAGGCCCGAAGCGUGGCGGCACCUGCCGCCGGUGGUAAAAAAGAUCGGAAGAGCACACGUCU [U7C U8C G9U U10G U11A C13G] | 1.1
10 | GGGUCGAGGAUUAAUAAUCGCGUGGAUAUGGCACGCAAGUUUCUACCGGGCACCGUAAAUGUCCGACUGGAGCCGUUCGGGCGGCUAUAAACAGACCUCAGGCCCGAAGCGUGGCGGCACCUGCCGCCGGUGGUAAAAAAGAUCGGAAGAGCACACGUCU [U7A U8G U10A C12U C13A] | 1.32
11 | GGGUCGGAUGGUUAUAAUCGCGUGGAUAUGGCACGCAAGUUUCUACCGGGCACCGUAAAUGUCCGACUGGAGCCGUUCGGGCGGCUAUAAACAGACCUCAGGCCCGAAGCGUGGCGGCACCUGCCGCCGGUGGUAAAAAAGAUCGGAAGAGCACACGUCU [U7G U8A G9U U10G U11G C12U C13U] | 1.12
12 | GGGUCGUAUCGCCAUAAUCGCGUGGAUAUGGCACGCAAGUUUCUACCGGGCACCGUAAAUGUCCGACUGGAGCCGUUCGGGCGGCUAUAAACAGACCUCAGGCCCGAAGCGUGGCGGCACCUGCCGCCGGUGGUAAAAAAGAUCGGAAGAGCACACGUCU [U8A G9U U10C U11G] | 1.34
13 | GGGUCGGAUGGCUAUAAUCGCGUGGAUAUGGCACGCAAGUUUCUACCGGGCACCGUAAAUGUCCGACUGGAGCCGUUCGGGCGGCUAUAAACAGACCUCAGGCCCGAAGCGUGGCGGCACCUGCCGCCGGUGGUAAAAAAGAUCGGAAGAGCACACGUCU [U7G U8A G9U U10G U11G C13U] | 1.18
14 | GGGUCGAAACAUUAUAAUCGCGUGGAUAUGGCACGCAAGUUUCUACCGGGCACCGUAAAUGUCCGACUGGAGCCGUUCGGGCGGCUAUAAACAGACCUCAGGCCCGAAGCGUGGCGGCACCUGCCGCCGGUGGUAAAAAAGAUCGGAAGAGCACACGUCU [U7A U8A G9A U10C U11A C12U C13U] | 1.03
15 | GGGUCGAAUCAGGAUAAUCGCGUGGAUAUGGCACGCAAGUUUCUACCGGGCACCGUAAAUGUCCGACUGGAGCCGUUCGGGCGGCUAUAAACAGACCUCAGGCCCGAAGCGUGGCGGCACCUGCCGCCGGUGGUAAAAAAGAUCGGAAGAGCACACGUCU [U7A U8A G9U U10C U11A C12G C13G] | 1.17
16 | GGGUCGAGAACACAUAAUCGCGUGGAUAUGGCACGCAAGUUUCUACCGGGCACCGUAAAUGUCCGACUGGAGCCGUUCGGGCGGCUAUAAACAGACCUCAGGCCCGAAGCGUGGCGGCACCUGCCGCCGGUGGUAAAAAAGAUCGGAAGAGCACACGUCU [U7A U8G G9A U10A U11C C12A] | 1.44
17 | GGGUCGAGCGAUGAUAAUCGCGUGGAUAUGGCACGCAAGUUUCUACCGGGCACCGUAAAUGUCCGACUGGAGCCGUUCGGGCGGCUAUAAACAGACCUCAGGCCCGAAGCGUGGCGGCACCUGCCGCCGGUGGUAAAAAAGAUCGGAAGAGCACACGUCU [U7A U8G G9C U10G U11A C12U C13G] | 1.23
18 | GGGUCGCCAGCUUAUAAUCGCGUGGAUAUGGCACGCAAGUUUCUACCGGGCACCGUAAAUGUCCGACUGGAGCCGUUCGGGCGGCUAUAAACAGACCUCAGGCCCGAAGCGUGGCGGCACCUGCCGCCGGUGGUAAAAAAGAUCGGAAGAGCACACGUCU [U7C U8C G9A U10G U11C C12U C13U] | 1.26

Row | Variant | aptazyme ON/OFF ratio
19 | GGGUCGUACGGACAUAAUCGCGUGGAUAUGGCACGCAAGUUUCUACCGGGCACCGUAAAUGUCCGACUGGAGCCGUUCGGGCGGCUAUAAACAGACCUCAGGCCCGAAGCGUGGCGGCACCUGCCGCCGGUGGUAAAAAAGAUCGGAAGAGCACACGUCU [U8A G9C U10G U11G C12A] | 1.14
20 | GGGUCGAAACUUCAUAAUCGCGUGGAUAUGGCACGCAAGUUUCUACCGGGCACCGUAAAUGUCCGACUGGAGCCGUUCGGGCGGCUAUAAACAGACCUCAGGCCCGAAGCGUGGCGGCACCUGCCGCCGGUGGUAAAAAAGAUCGGAAGAGCACACGUCU [U7A U8A G9A U10C C12U] | 1.23
21 | GGGUCGUAUUGAGAUAAUCGCGUGGAUAUGGCACGCAAGUUUCUACCGGGCACCGUAAAUGUCCGACUGGAGCCGUUCGGGCGGCUAUAAACAGACCUCAGGCCCGAAGCGUGGCGGCACCUGCCGCCGGUGGUAAAAAAGAUCGGAAGAGCACACGUCU [U8A G9U U11G C12A C13G] | 1.41
22 | GGGUCGUUCAUGGAUAAUCGCGUGGAUAUGGCACGCAAGUUUCUACCGGGCACCGUAAAUGUCCGACUGGAGCCGUUCGGGCGGCUAUAAACAGACCUCAGGCCCGAAGCGUGGCGGCACCUGCCGCCGGUGGUAAAAAAGAUCGGAAGAGCACACGUCU [G9C U10A C12G C13G] | 1.18
23 | GGGUCGACGGCACAUAAUCGCGUGGAUAUGGCACGCAAGUUUCUACCGGGCACCGUAAAUGUCCGACUGGAGCCGUUCGGGCGGCUAUAAACAGACCUCAGGCCCGAAGCGUGGCGGCACCUGCCGCCGGUGGUAAAAAAGAUCGGAAGAGCACACGUCU [U7A U8C U10G U11C C12A] | 2.43
24 | GGGUCGCUCGGAGAUAAUCGCGUGGAUAUGGCACGCAAGUUUCUACCGGGCACCGUAAAUGUCCGACUGGAGCCGUUCGGGCGGCUAUAAACAGACCUCAGGCCCGAAGCGUGGCGGCACCUGCCGCCGGUGGUAAAAAAGAUCGGAAGAGCACACGUCU [U7C G9C U10G U11G C12A C13G] | 1.12
25 | GGGUCGGAGUCAUAUAAUCGCGUGGAUAUGGCACGCAAGUUUCUACCGGGCACCGUAAAUGUCCGACUGGAGCCGUUCGGGCGGCUAUAAACAGACCUCAGGCCCGAAGCGUGGCGGCACCUGCCGCCGGUGGUAAAAAAGAUCGGAAGAGCACACGUCU [U7G U8A U11C C12A C13U] | 1.46
26 | GGGUCGAUUGCAGAUAAUCGCGUGGAUAUGGCACGCAAGUUUCUACCGGGCACCGUAAAUGUCCGACUGGAGCCGUUCGGGCGGCUAUAAACAGACCUCAGGCCCGAAGCGUGGCGGCACCUGCCGCCGGUGGUAAAAAAGAUCGGAAGAGCACACGUCU [U7A G9U U10G U11C C12A C13G] | 1.12
27 | GGGUCGUGCUCAGAUAAUCGCGUGGAUAUGGCACGCAAGUUUCUACCGGGCACCGUAAAUGUCCGACUGGAGCCGUUCGGGCGGCUAUAAACAGACCUCAGGCCCGAAGCGUGGCGGCACCUGCCGCCGGUGGUAAAAAAGAUCGGAAGAGCACACGUCU [U8G G9C U11C C12A C13G] | 1.04
28 | GGGUCGAGCCGGGAUAAUCGCGUGGAUAUGGCACGCAAGUUUCUACCGGGCACCGUAAAUGUCCGACUGGAGCCGUUCGGGCGGCUAUAAACAGACCUCAGGCCCGAAGCGUGGCGGCACCUGCCGCCGGUGGUAAAAAAGAUCGGAAGAGCACACGUCU [U7A U8G G9C U10C U11G C12G C13G] | 1.18
29 | GGGUCGUUGCAACAUAAUCGCGUGGAUAUGGCACGCAAGUUUCUACCGGGCACCGUAAAUGUCCGACUGGAGCCGUUCGGGCGGCUAUAAACAGACCUCAGGCCCGAAGCGUGGCGGCACCUGCCGCCGGUGGUAAAAAAGAUCGGAAGAGCACACGUCU [U10C U11A C12A] | 1.48
30 | GGGUCGCUUAUAUAUAAUCGCGUGGAUAUGGCACGCAAGUUUCUACCGGGCACCGUAAAUGUCCGACUGGAGCCGUUCGGGCGGCUAUAAACAGACCUCAGGCCCGAAGCGUGGCGGCACCUGCCGCCGGUGGUAAAAAAGAUCGGAAGAGCACACGUCU [U7C G9U U10A C12A C13U] | 1.36
31 | GGGUCGCCGUGGGAUAAUCGCGUGGAUAUGGCACGCAAGUUUCUACCGGGCACCGUAAAUGUCCGACUGGAGCCGUUCGGGCGGCUAUAAACAGACCUCAGGCCCGAAGCGUGGCGGCACCUGCCGCCGGUGGUAAAAAAGAUCGGAAGAGCACACGUCU [U7C U8C U11G C12G C13G] | 1.16
32 | GGGUCGCAAUUCCAUAAUCGCGUGGAUAUGGCACGCAAGUUUCUACCGGGCACCGUAAAUGUCCGACUGGAGCCGUUCGGGCGGCUAUAAACAGACCUCAGGCCCGAAGCGUGGCGGCACCUGCCGCCGGUGGUAAAAAAGAUCGGAAGAGCACACGUCU [U7C U8A G9A] | 1.22
33 | GGGUCGGACGCCAAUAAUCGCGUGGAUAUGGCACGCAAGUUUCUACCGGGCACCGUAAAUGUCCGACUGGAGCCGUUCGGGCGGCUAUAAACAGACCUCAGGCCCGAAGCGUGGCGGCACCUGCCGCCGGUGGUAAAAAAGAUCGGAAGAGCACACGUCU [U7G U8A G9C U10G U11C C13A] | 1.03
34 | GGGUCGUAACUGCAUAAUCGCGUGGAUAUGGCACGCAAGUUUCUACCGGGCACCGUAAAUGUCCGACUGGAGCCGUUCGGGCGGCUAUAAACAGACCUCAGGCCCGAAGCGUGGCGGCACCUGCCGCCGGUGGUAAAAAAGAUCGGAAGAGCACACGUCU [U8A G9A U10C C12G] | 1.18
35 | GGGUCGCAGAAUUAUAAUCGCGUGGAUAUGGCACGCAAGUUUCUACCGGGCACCGUAAAUGUCCGACUGGAGCCGUUCGGGCGGCUAUAAACAGACCUCAGGCCCGAAGCGUGGCGGCACCUGCCGCCGGUGGUAAAAAAGAUCGGAAGAGCACACGUCU [U7C U8A U10A U11A C12U C13U] | 1.13
36 | GGGUCGACGUUAGAUAAUCGCGUGGAUAUGGCACGCAAGUUUCUACCGGGCACCGUAAAUGUCCGACUGGAGCCGUUCGGGCGGCUAUAAACAGACCUCAGGCCCGAAGCGUGGCGGCACCUGCCGCCGGUGGUAAAAAAGAUCGGAAGAGCACACGUCU [U7A U8C C12A C13G] | 1.11
